Assay results reported in article PMC7042088.
Positions count from the first letter of the chain named. Numbers in names are those of the source. Each block holds one binder with its values, some of them ahead of it.

Target: fluorescently labelled UDP-peptide bisubstrate conjugate
Assay: fluorescence polarisation; increasing concentrations of OGT titrated against a fixed concentration of the fluorescent probe; 0.1 M Tris/HCl pH 7.5, 0.15 M NaCl, 0.5 mM TCEP, 5% DMSO; 30 min in the dark

- Kd: 1.6 µM
B1: O-GlcNAc transferase, truncated wild type (catalytic domain and 3.5 TPR repeats, residues 323-1044) (enzyme)
chain: CPTHADSLNNLANIKREQGNIEEAVRLYRKALEVFPEFAAAHSNLASVLQQQGKLQEALMHYKEAIRISPTFADAYSNMGNTLKEMQDVQGALQCYTRAIQINPAFADAHSNLASIHKDSGNIPEAIASYRTALKLKPDFPDAYCNLAHCLQIVCDWTDYDERMKKLVSIVADQLEKNRLPSVHPHHSMLYPLSHGFRKAIAERHGNLCLDKINVLHKPPYEHPKDLKLSDGRLRVGYVSSDFGNHPTSHLMQSIPGMHNPDKFEVFCYALSPDDGTNFRVKVMAEANHFIDLSQIPCNGKAADRIHQDGIHILVNMNGYTKGARNELFALRPAPIQAMWLGYPGTSGALFMDYIITDQETSPAEVAEQYSEKLAYMPHTFFIGDHANMFPHLKKKAVIDFKSNGHIYDNRIVLNGIDLKAFLDSLPDVKIVKMKCPDGGDNADSSNTALNMPVIPMNTIAEAVIEMINRGQIQITINGFSISNGLATTQINNKAATGEEVPRTIIVTTRSQYGLPEDAIVYCNFNQLYKIDPSTLQMWANILKRVPNSVLWLLRFPAVGEPNIQQYAQNMGLPQNRIIFSPVAPKEEHVRRGQLADVCLDTPLCNGHTTGMDVLWAGTPMVTMPGETLASRVAASQLTCLGCLELIAKNRQEYEDIAVKLGTDLEYLKKVRGKVWKQRISSPLFNTKQYTMELERLYLQMWEHYAAGNKPDHMIKPVEVTE

- Kd: 11 µM
B2: O-GlcNAc transferase N648Y, truncated (catalytic domain and 3.5 TPR repeats, residues 323-1044) (enzyme)
chain: B1 chain with N326Y
